The series in a line: protein stability index of a GFP-peptide fusion (GPS, HEK-293T) (PSI 1-6); higher = more stable. The conditions noted are these: c terminus: a fixed tail appended.

Consider 29 sequences from the supplement of paper PMC10567573.

± gives the standard deviation.
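Note: 24-mer peptide tiles fused after GFP, lentivirally expressed, FACS-sorted into six equal bins by GFP/DsRed ratio, decoded by Illumina sequencing, PSI is the read-weighted mean bin number.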

Consider ESRDRPSCAPSASIPKLKLTRPVP [PWWP2B], for which the protein stability index stood at 4.26 ± 0.2 (treatment: DMSO) and 4.16 ± 0.14 (treatment: MLN4924 1 uM, 8 h).
The corresponding values for MKRDVQEGQARCLAHLGRHMEALE [C8orf76] are 3.66 ± 0.22 and 3.97 ± 0.35.
The corresponding values for DGISIPELREACDYLCISFEYSTI [BTBD10] are 3.18 ± 0.93 and 2.87 ± 0.56.
RMLVAASWACAFTNALTHTVAMST [OR3A1]: the protein stability index (treatment: DMSO) was 3.07 ± 0.24 and the protein stability index (treatment: MLN4924 1 uM, 8 h) came out at 3.18 ± 0.5.
The corresponding values for AALLGSNSESWGWDIGRGKLYHQS [SPSB2] are 2.6 ± 0.63 and 3.06 ± 0.13.
The corresponding values for AQTFIALCATDFKFAMYPPSMIAT [CCND2] are 2.75 ± 0.71 and 3.04 ± 0.62.
The corresponding values for DDEEFEYRHVMLPKDIAKLVPKTH [CKS1B] are 4.38 ± 0.23 and 4.39 ± 0.32.
With MEVLPCSRVAHIERTRKPYNNDID [GALNT9], the protein stability index stood at 2.46 ± 0.26 (treatment: DMSO) and 2.44 ± 0.28 (treatment: MLN4924 1 uM, 8 h).
As for QPRKGGADWLGLKDEDLDLFPASP [FBF1], the protein stability index amounted to 4.71 ± 0.1 (treatment: DMSO) and 4.79 ± 0.17 (treatment: MLN4924 1 uM, 8 h).
NPKWTKWLQKLCCPCCFGRDCLVL [PI4K2A]: the protein stability index runs as follows: (treatment: DMSO) 2.79 ± 0.3; (treatment: MLN4924 1 uM, 8 h) 2.72 ± 0.15.
The corresponding values for VSTGSTDNSPTSNSLEGGTDATAF [ADAMTSL2] are 4.97 ± 0.28 and 5.31 ± 0.28.
With PPGDIMFLLVQRFGELMRKLWNPR [USP39], the protein stability index is, setting by setting: (treatment: DMSO) 2.77 ± 0.31; (treatment: MLN4924 1 uM, 8 h) 2.77 ± 0.17.
The corresponding values for LPLLESCSVRPDASVSSHRFFGPN [TCF25] are 3.17 ± 0.24 and 3.27 ± 0.26.
Turning to ELCRDAAQFRLLSEVEELNMSLTA [TEKT4], the protein stability index by setting is: (treatment: DMSO) 2.85 ± 0.34; (treatment: MLN4924 1 uM, 8 h) 2.77 ± 0.28.
Take KLQGLENWGQDPGVSANASKAWHQ [PBXIP1]: the protein stability index is 3.27 ± 0.27 (treatment: DMSO) and 3.37 ± 0.28 (treatment: MLN4924 1 uM, 8 h).
On to SLNLSTEFISSTKRPYAKELETVD [SERPINB5], for which the protein stability index (treatment: DMSO) stood at 3.69 ± 0.14 and the protein stability index (treatment: MLN4924 1 uM, 8 h) worked out at 3.82 ± 0.21.
With HSRFVELSEAYRVLSREQSRRSYD [DNAJC4], the protein stability index (treatment: DMSO) amounted to 3.54 ± 0.23 and the protein stability index (treatment: MLN4924 1 uM, 8 h) came to 3.7 ± 0.14.
The corresponding values for AAARGGQCPGLGPAPTPTPPGRLG [ZBED3] are 4.36 ± 0.24 and 4.63 ± 0.34.
The corresponding values for CERHEKGVLHKHQRALHKYSLMKR [SNX8] are 3.56 ± 0.29 and 3.8 ± 0.31.
Take ATKKLGFKHPVIGVHVRRTDKVGT [FUT8]: the protein stability index stood at 3.12 ± 0.091 (treatment: DMSO) and 3.15 ± 0.21 (treatment: MLN4924 1 uM, 8 h).
The corresponding values for LDVEAAHSEILKYFQSVTSNRWLM [STX5] are 2.06 ± 0.29 and 1.95 ± 0.055.
The corresponding values for KHTVKEHECKLTQEILELIDREVD [IQUB] are 4.06 ± 0.23 and 4.24 ± 0.22.
The corresponding values for WMPPPSRADSFKVSYQLADGGEPQ [TNXB] are 4.03 ± 0.44 and 4.23 ± 0.64.
Turning to LHAAAAGGNVECIKLLQSSGADFH [ANKRD44], the protein stability index is, setting by setting: (treatment: DMSO) 3.37 ± 0.091; (treatment: MLN4924 1 uM, 8 h) 3.46 ± 0.22.
LFSDPRSTRLTRIHLREDLVQDQD [ZER1]: the protein stability index is, setting by setting: (treatment: DMSO) 4.53 ± 0.24; (treatment: MLN4924 1 uM, 8 h) 4.55 ± 0.09.
In the case of GGTPARSGTTLISVIVLDINDNAP [PCDHGC5], the protein stability index is, setting by setting: (treatment: DMSO) 2.66 ± 1.1; (treatment: MLN4924 1 uM, 8 h) 2.64 ± 1.6.
The corresponding values for RDAGATPSAAGAPASAPGEPRQRR [ANKRD9] are 5.57 ± 0.27 and 5.59 ± 0.19.
The corresponding values for PACLGQPHTPGKPTSSCTSRSAPP [FOXJ1] are 4.51 ± 0.13 and 4.69 ± 0.11.
Take QFEANGYFFKRPYPFVLFYSKFHG [KMT2E]: the protein stability index (treatment: MLN4924 1 uM, 8 h) is 2.91 ± 1.9.
